B1: Tim3_0022 Fab-PE24 construct (Fab, V domains shown)
VH: EVQLQESGPSLVKPSQTLSLTCSVTGDSIASAYWNWIRKFPGNKLEYMGYINYSGSTYYNPSLKSRISITRDTSQNQYYLQLNSVTTEDTATYYCVTGDYFDYWGRGTTLTVSS
VL: DIQMTQSPSSLSAYLGGKVTITCKARQDVRKNIGWYQHKPGKGPRLLIWYTSTLQSGIPSRFSGSGSGRDYSFNINNLEPEDIATYYCLQYDNLPFTFGTGTKLEIR
B2: Tim3_0016 Fab-PE24 construct (Fab, V domains shown)
VH: QVTLKESGPGILQPSQTLRLTCSFSGFSLSTSGMSVGWIRQPSGKGLEWLAHIWLNDDVFFNPALKSRLTISKDTSNNQVFLQIASVVTADTATYYCVRANGYLYALDYWGQGTSVTVSS
VL: QIVLTQSPAIMSASPGQKVTITCSASSSVNYTQWYQQKLGSSPKLWIYDAFKLAPGVPARFSGSGTGTSYSLTISSMEAEDAASYFCHQWSSYPWTFGGGTKLEIK
B3: Tim3_0021 Fab-PE24 construct (Fab, V domains shown)
VH: QVQLQQSGPQLVRPGASVQISCKASGYSFTSYLLHWLKQRPGQGLEWIGMIDPSDSETRLNQKFKDKATLTVDKSSSTAYMQLSSPTSEDSAVYYCARDGYYAWYYFDCWGQGTTLTVSS
VL: DIVLTQSPATLSVTPGDRVSLSCRASQSIGNNLHWYQQKSHESPRLLIKYASHSISGIPSKFSGTGSGTDFTLSFNSVETEDFGMYFCQQSNSWPLTFGAGTKLELK
B4: Tim3_0033 Fab-PE24 construct (Fab, V domains shown)
VH: QGQMHQSGAELVKPGSSVKLSCKTSGFTFSSSFISWLKQKPGQSLEWIAWIYAATGSTSYNQKFTNKAQLTVDTSSSAAYMQFSSLTTEDSAIYYCARHAGYPHYYAMDYWGQGTSVTVSS
VL: DIQMTQSPASLSASVGETVTITCRASENIFSNLAWYQQKQGKSPQLLVYSATNLGDGVPSRFSGSGSGTQFSLKINSLQPEDFGNYYCQHFYKIPFTFGTGTKLEIK
B5: Tim3_0016 (antibody, V domains shown)
VH: QVTLKESGPGILQPSQTLRLTCSFSGFSLSTSGMSVGWIRQPSGKGLEWLAHIWLNDDVFFNPALKSRLTISKDTSNNQVFLQIASVVTADTATYYCVRANGYLYALDYWGQGTSVTVSS
VL: QIVLTQSPAIMSASPGQKVTITCSASSSVNYTQWYQQKLGSSPKLWIYDAFKLAPGVPARFSGSGTGTSYSLTISSMEAEDAASYFCHQWSSYPWTFGGGTKLEIK
notes: also called clone 0016

Tests used:
[1] = target: T1, human TIM-3 on cells (human, UniProt Q8TDQ0 22-301); test: cell-based or functional assay
[2] = target: T1, human TIM-3 on cells; test: cell-based or functional assay; remark: listed apart in the source
[3] = target: T1, human TIM-3 on cells; test: cell-based or functional assay; remark: listed apart in the source
[4] = target: T2, cynomolgus TIM-3 on isolated cyno CD14+ monocytes (cynomolgus); test: flow cytometry, cyno CD14+ monocytes cyno3
T2 construct: whole, on cells

[5] = target: T1, human TIM-3 on cells; test: cell-based or functional assay; remark: listed apart in the source
[6] = target: T2, cynomolgus TIM-3 on isolated cyno CD14+ …; test: flow cytometry, cyno CD14+ monocytes cyno2
From the text: (§1) CD14+ Monocytes were isolated from cynomolgus monkey anticoagulated peripheral blood (Covance) by density gradient centrifugation using Ficoll-Paque (GE Healthcare) (see General Protocols in the User Manuals or visit www.miltenyibiotec.com/protocols) and subsequent positive selection via NHP CD14 MicroBeads. First the CD14+ cells are magnetically labeled with CD14 MicroBeads. Then the cell suspension is loaded onto a MACS® Column which is placed in the magnetic field of a MACS Separator. The magnetically labeled CD14+ cells are retained in the column. The unlabeled cells run through, this cell fraction is depleted of CD14+ cells. After removal of the column from the magnetic field, the magnetically retained CD14+ cells can be eluted as the positively selected cell fraction. After centrifugation at 200×g for 10 min at room temperature the monocytes were harvested and used directly in binding assay or resuspended in freezing medium (10% DMSO, 90% FCS) at 1.0E+07 cells/ml and stored in liquid nitrogen.
(§2) 1×10⁵ CD14+ isolated cyno monocytes (50 μl/well) were put into 98 well-v bottom MTP in fresh culture medium and incubated with Redimune® NF Liquid for 15 min at RT to block unspecific binding. Than 50 μl/well of Alexa488 labeled anti-TIM3 (10 μg/ml in cell culture medium) were added and incubated for 1 h at 4° C. After washing and centrifugation MFI signals of stained cells were analyzed by BD Biosciences FACSCanto flow cytometer.

[7] = target: T3, monomeric cyno Tim3-ECD (cynomolgus, UniProt A0A2K5U3G7 22-195); test: SPR Biacore, antibody captured by anti-mouse IgG
T3 construct: extracellular domain; also called cyTim3
T3 sequence: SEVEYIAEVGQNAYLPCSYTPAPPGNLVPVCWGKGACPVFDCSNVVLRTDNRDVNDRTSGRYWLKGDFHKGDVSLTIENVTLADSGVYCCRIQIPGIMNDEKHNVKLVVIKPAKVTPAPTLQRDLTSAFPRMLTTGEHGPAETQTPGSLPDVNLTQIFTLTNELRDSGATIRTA
Method: Therefore, an anti-mouse IgG was immobilized by amine coupling to the surface of a (Biacore) CM5 sensor chip. The samples were then captured and hu/cy Tim3-ECD was bound to them. The sensor chip surface was regenerated after each analysis cycle. The equilibrium constant KD was finally gained by fitting the data to a 1:1 langmuir interaction model.
Flow cell temperature was set to 25° C. and sample compartment temperature to 12° C. The system was primed with running buffer. The samples were injected for 30 seconds with a concentration of 200 μg/ml and bound to the spots 1 and 5 of each flow cell, allowing the measurement of eight samples in parallel. Then a complete set of different (monomeric cyno, monomeric human and huFc fused dimeric human Tim3-ECD) concentrations (s. Table X) was injected over each sample for 240 s followed by a dissociation time of 30/1800 s (s. Table 1). Each analysis cycle (sample capture, spot 1 and 5—Tim3 ECD injection) was then regenerated with a 30 seconds long injection of Glycine-HCl pH 1.7. The flow rate was set to 30 μl/min for the whole run. Finally, the double referenced data was fitted to a 1:1 langmuir interaction model with the Biacore B4000 Evaluation Software.

[8] = target: T1, human TIM-3 on cells; test: flow cytometry, human CD14+ monocytes donor3
From the text: (§3) CD14+ Monocytes were isolated from anticoagulated peripheral blood of healthy donors by density gradient centrifugation using Ficoll-Paque (GE Healthcare) (see General Protocols in the User Manuals or visit www.miltenyibiotec.com/protocols) and subsequent positive selection via CD14 MicroBeads. First the CD14+ cells are magnetically labeled with CD14 MicroBeads. Then the cell suspension is loaded onto a MACS® Column which is placed in the magnetic field of a MACS Separator. The magnetically labeled CD14+ cells are retained in the column. The unlabeled cells run through, this cell fraction is depleted of CD14+ cells. After removal of the column from the magnetic field, the magnetically retained CD14+ cells can be eluted as the positively selected cell fraction. After centrifugation at 200×g for 10 min at room temperature the monocytes were harvested and used directly in binding assay or resuspended in freezing medium (10% DMSO, 90% FCS) at 1.0E+07 cells/ml and stored in liquid nitrogen.
(§4) 1×10⁵ CD14+ isolated human monocytes (50 μl/well) were put into 98 well-v bottom MTP in fresh culture medium and incubated with Redimune® NF Liquid for 15 min at RT to block unspecific binding. […] After washing and centrifugation MFI signals of stained cells were analyzed by BD Biosciences FACSCanto flow cytometer.

[9] = target: T1, human TIM-3 on cells; test: flow cytometry, human CD14+ monocytes donor1
From the text: as §3, §4

[10] = target: T2, cynomolgus TIM-3 on isolated cyno CD14+ …; test: flow cytometry, cyno CD14+ monocytes cyno1
From the text: as §1, §2

[11] = target: T1, human TIM-3 on cells; test: flow cytometry, human CD14+ monocytes donor2
From the text: as §3, §4

| Binder | IC50 cytotoxicity, CMK [1] [nM] | IC50 cytotoxicity, Karpas-299 [1] [nM] | IC50 cytotoxicity, MOLM-13 [1] [nM] | IC50 cytotoxicity, TF-1 [1] [nM] | IC50 cytotoxicity, primary AML CD34+ PB0135 [2] [nM] | IC50 cytotoxicity, primary AML CD34+ PB0136 [2] [nM] | Max. killing, Pfeiffer cells [3] [%] | further results |
| --- | --- | --- | --- | --- | --- | --- | --- | --- |
| B1 | 255 | 10 | 579 | 299 | > 691 | > 691 | – | – |
| B2 | 225 | 4 | 459 | 534 | > 691 | > 691 | – | – |
| B3 | – | – | – | – | – | – | 98.4 | – |
| B4 | – | – | – | – | – | – | 99.8 | Max. killing, RPMI-8226 cells [3]: 99.7% |
| B5 | – | – | – | – | – | – | – | MFI [4]: 187 MFI; IFN-gamma release in MLR at 1 µg/ml, % of IL-2 control [5]: 7%; IFN-gamma release in MLR at 10 µg/ml, % of IL-2 control [5]: 22%; MFI [6]: 177 MFI; Kd [7]: 21.6 nM; specific binding MFI [8]: 1690 MFI; specific binding MFI [9]: 2120 MFI; MFI [10]: 157 MFI; specific binding MFI [11]: 1630 MFI |
